According to patent US7087393:

Target: rabbit anti-CS198 peptide antiserum raised against the unconjugated peptide of SEQUENCE ID NO 44 (13 week bleed)
Assay: Western blot competition: antiserum pre-incubated overnight at 4 C with varying concentrations of peptide immunogen before exposure to the filter carrying the 45 kD band

concentration of peptide at which antibody binding to the band was inhibited: 2.6 µM
Binder: RLQKSQSSDLLERERESVLRREQEVAEERRN [CS198 synthetic peptide of SEQUENCE ID NO 44]
